T1: myc-tagged soluble neuropilin extracellular domain (myc-neuropilin^ex) (rat, UniProt Q9QWJ9 22-855)
T1 construct: Expressed in COS cells and used as culture medium
T1 sequence: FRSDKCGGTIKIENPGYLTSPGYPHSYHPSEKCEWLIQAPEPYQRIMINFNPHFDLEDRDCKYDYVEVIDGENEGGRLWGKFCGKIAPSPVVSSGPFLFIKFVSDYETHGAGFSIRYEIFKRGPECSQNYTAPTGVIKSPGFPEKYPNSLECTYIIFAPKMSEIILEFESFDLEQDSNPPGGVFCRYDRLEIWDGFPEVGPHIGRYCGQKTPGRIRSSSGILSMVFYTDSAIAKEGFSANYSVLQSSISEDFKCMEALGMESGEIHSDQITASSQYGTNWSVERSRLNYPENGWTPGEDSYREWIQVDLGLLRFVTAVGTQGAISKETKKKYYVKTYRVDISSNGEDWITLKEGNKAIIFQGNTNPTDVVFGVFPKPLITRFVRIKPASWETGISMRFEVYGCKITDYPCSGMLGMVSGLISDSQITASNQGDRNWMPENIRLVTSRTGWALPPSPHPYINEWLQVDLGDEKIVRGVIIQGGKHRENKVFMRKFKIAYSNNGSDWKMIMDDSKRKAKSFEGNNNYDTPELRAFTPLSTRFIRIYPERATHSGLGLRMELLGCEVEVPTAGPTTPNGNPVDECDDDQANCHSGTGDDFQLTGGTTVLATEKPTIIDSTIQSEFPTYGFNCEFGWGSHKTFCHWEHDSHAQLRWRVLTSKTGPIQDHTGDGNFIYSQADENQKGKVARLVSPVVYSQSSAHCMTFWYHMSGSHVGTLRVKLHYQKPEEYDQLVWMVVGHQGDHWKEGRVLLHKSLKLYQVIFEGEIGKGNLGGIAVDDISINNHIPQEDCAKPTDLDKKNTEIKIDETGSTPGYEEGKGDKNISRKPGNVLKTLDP


Experiments:
[1] = biological target: T2, rat neuropilin (neuropilin-1), full length (rat, UniProt Q9QWJ9 22-922); assay: whole cell binding, Scatchard analysis, COS cells transiently expressing neuropilin
T2 construct: Expressed transiently on COS cells from pMT21-neuropilin
Experimental: Because Coll-1 elicits biological effects at sub-nanomolar concentrations (Luo et al., 1993), we predicted that a bona fide Sema III receptor should bind to Sema III with high affinity. To determine the affinity of Sema-AP for neuropilin, neuropilin was transiently expressed in COS cells, and whole cell binding analyses were performed two days later (FIG. 3A). For comparison, the affinity of Sema-AP for its receptor(s) present on NGF-dependent sensory neurons prepared from dissociated E14 DRG was also determined (FIG. 3B). […] These binding affinities are similar to those recently described for netrins and their receptors (Keino-Masu et al., 1996; Leonardo et al., 1997) and Eph receptors and their ligands (Cheng and Flanagan, 1994; Monschau et al., 1997), and they are consistent with a role for neuropilin in Sema III-mediated growth cone collapse and in repulsive guidance of DRG neurons during neurodevelopment.
COS cells were transfected with 2 μg of pMT21-neuropilin, an expression vector encoding neuropilin, or either no DNA or the empty pMT21 expression vector using Lipofectamine (BRL), recovered in growth media, and then grown for 48 hours prior to binding analysis. Dissociated DRG neurons were cultured from E14 DRGs. […] Quantitiative cell surface binding was done essentially as described (Flanagan and Leder, 1990).

[2] = biological target: Sema-AP binding sites / Sema III receptor(s) on NGF-dependent rat E14 DRG sensory neurons; assay: whole cell binding, Scatchard analysis, dissociated rat E14 DRG neurons
[3] = biological target: T2, rat neuropilin (neuropilin-1), full …; assay: AP staining of transfected COS cells
Experimental: FIGS. 1A to 1F. Sema-AP binds to neuropilin. COS cells were transfected with an expression vector encoding neuropilin (FIGS. 1A–1C) or the empty vector (FIG. 1D). After two days, cells were incubated with Sema-AP (FIG. 1A) or SEAP (FIG. 1B) and then processed for alkaline phosphatase activity, or cells were fixed and subjected to immunocytochemistry using anti-neuropilin IgG (FIGS. 1C and 1D). No neuropilin immunoreactivity was detected when COS cells expressing neuropilin were incubated with pre-immune IgG. (FIG. 1E) Anti-neuropilin immunoblot analysis of whole cell extracts prepared from COS cells that were transfected with the empty expression vector (lane 1) or an expression vector encoding neuropilin (lane 2). (FIG. 1F) Sema-AP binds directly to the extracellular domain of neuropilin. Either Sema-AP or SEAP was incubated with soluble myc-tagged neuropilin extracellular domain (myc-neuropilin^ex). Then, myc-neuropilin^ex was immunoprecipitated with an antibody directed against the myc epitope, and alkaline phosphatase activity in the immune complex was determined as described in the Examples. AP activity was measured as described in the Examples and is reported as OD$405$/second. Shown are the means +/− SEM of three independent experiments. Scale bar=25 μm.

[4] = biological target: T1, myc-tagged soluble neuropilin …; assay: co-immunoprecipitation with anti-myc antibody, AP activity
Experimental: Therefore, we next asked whether Sema-AP binds directly to neuropilin in a co-immunoprecipitation assay. For these experiments, an N-terminal myc-tagged neuropilin protein lacking the neuropilin transmembrane and intracellular domains (myc-neuropilin^ex) was used to assess whether the extracellular domain of neuropilin can directly interact with Sema III. Myc-neuropilin^ex was expressed in COS cells and the tissue culture medium was then incubated with either Sema-AP or SEAP alone. Upon precipitation of the myc-neuropilin^ex with a monoclonal antibody directed against the myc epitope, co-precipitation of Sema-AP was determined by the presence of AP activity in the immune complex (FIG. 1F). In contrast, no AP activity above background levels was detected in anti-myc immune complexes collected from samples in which myc-neuropilin was incubated with SEAP alone.
Co-precipitation of Sema-AP and the Secreted, Extracellular Domain of Neuropilin COS cell supernatant containing myc-neuropilin^ex, 293 EBNA cell supernatant containing SEAP, or 293 EBNA cell supernatant containing Sema-AP was filter-sterilized and concentrated. Samples containing equal amounts of control supernatants or supernatants containing myc-neuropilin^ex were mixed with samples containing either Sema-AP or SEAP (equal amounts of AP activity). These mixtures were incubated at room temperature for 2 hours. […]

Kd [1] [nM]	binding sites per cell (binding sites per cell) [2]	binding result [3]	binding result [4]	Binder
~1.5	20000			H-Sema III-alkaline phosphatase fusion protein (Sema-AP) (ligand, human, UniProt Q14563 21-771, looked up, Made in 293 EBNA cells from pCEP4 and used as supernatant; also called Sema III-AP; Sema III-secreted placental alkaline phosphatase fusion protein; not shown: secreted placental alkaline phosphatase of vector pAPtag-1 (Flanagan and Leder, 1990), C-terminal to Sema III; limits an) NYQNGKNNVPRLKLSYKEMLESNNVITFNGLANSSSYHTFLLDEERSRLYVGAKDHIFSFDLVNIKDFQKIVWPVSYTRRDECKWAGKDILKECANFIKVLKAYNQTHLYACGTGAFHPICTYIEIGHHPEDNIFKLENSHFENGRGKSPYDPKLLTASLLIDGELYSGTAADFMGRDFAIFRTLGHHHPIRTEQHDSRWLNDPKFISAHLISESDNPEDDKVYFFFRENAIDGEHSGKATHARIGQICKNDFGGHRSLVNKWTTFLKARLICSVPGPNGIDTHFDELQDVFLMNFKDPKNPVVYGVFTTSSNIFKGSAVCMYSMSDVRRVFLGPYAHRDGPNYQWVPYQGRVPYPRPGTCPSKTFGGFDSTKDLPDDVITFARSHPAMYNPVFPMNNRPIVIKTDVNYQFTQIVVDRVDAEDGQYDVMFIGTDVGTVLKVVSIPKETWYDLEEVLLEEMTVFREPTAISAMELSTKQQQLYIGSTAGVAQLPLHRCDIYGKACAECCLARDPYCAWDGSACSRYFPTAKRRTRRQDIRNGDPLTHCSDLHHDNHHGHSPEERIIYGVENSSTFLECSPKSQRALVYWQFQRRNEERKEEIRVDDHIIRTDQGLLLRSLQQKDSGNYLCHAVEHGFIQTLLKVTLEVIDTEHLEELLHKDDDGDGSKTKEMSNSMTPSQKVWYRDFMQLINHPNLNTMDEFCEQVWKRDRKQRRQRPGHTPGNSNKWKHLQENKKGRNRRTHEFERAPRSV
		no binding	no binding	secreted placental alkaline phosphatase (SEAP) (enzyme, UniProt P05187 23-511, looked up, Control for the AP part of Sema-AP) IIPVEEENPDFWNREAAEALGAAKKLQPAQTAAKNLIIFLGDGMGVSTVTAARILKGQKKDKLGPEIPLAMDRFPYVALSKTYNVDKHVPDSGATATAYLCGVKGNFQTIGLSAAARFNQCNTTRGNEVISVMNRAKKAGKSVGVVTTTRVQHASPAGTYAHTVNRNWYSDADVPASARQEGCQDIATQLISNMDIDVILGGGRKYMFRMGTPDPEYPDDYSQGGTRLDGKNLVQEWLAKRQGARYVWNRTELMQASLDPSVTHLMGLFEPGDMKYEIHRDSTLDPSLMEMTEAALRLLSRNPRGFFLFVEGGRIDHGHHESRAYRALTETIMFDDAIERAGQLTSEEDTLSLVTADHSHVFSFGGYPLRGSSIFGLAPGKARDRKAYTVLLYGNGPGYVLKDGARPDVTESESGSPEYRQQSAVPLDEETHAGEDVAVFARGPQAHLVHGVQEQTFIAHVMAFAACLEPYTACDLAPPAGTTDAAHPG
